Positions count from the first letter of the chain named. “And” between values parts separate entries of the source, which are not always exact repeats. Equal values may be shown once.
B1: H3K9me3 peptide, biotinylated (peptide)
chain: ARTKQTARKSTGGKAPR
modifications: trimethyl-lysine at K9; biotin followed by an aminohexanoic acid linker at the N-terminus
B2: H3K27me3 peptide, biotinylated (peptide)
chain: KQLATKAARKSAPATGGVK
modifications: trimethyl-lysine at K27; biotin followed by an aminohexanoic acid linker at the N-terminus
B3: H3K9me3 peptide, FITC-labeled (peptide)
chain: ARTKQTARKSTGGKAPR
modifications: trimethyl-lysine at K9; fluorescein isothiocyanate (FITC) at the N-terminus
B4: H3K27me3 peptide, FITC-labeled (peptide)
chain: KQLATKAARKSAPATGGVK
modifications: trimethyl-lysine at K27; fluorescein isothiocyanate (FITC) at the N-terminus

Assays:
Settings in all cases: both partners purified
[1] = biological target: T1, Cbx7.V1 chromodomain variant (protein used for BLI) (human, UniProt O95931 7-66, E8D (printed as the back-mutation D8E) | Q9D | V10I (printed as the …)); experiment: BLI; biotinylated peptide on streptavidin biosensor tips, chromodomain in solution at 5 or 1 µM; 25 °C; 25 mM HEPES pH 7.0, 150 mM NaCl, 1 mg/ml BSA, 0.01% Tween-20; steady-state fit, Langmuir model; values of single replicates
T1 construct: chromodomain of human Cbx7 with the six substitutions of the phage-selected variant V1; residues numbered on full-length Cbx7; for BLI they were probably still on the protein; source: E. coli BL21(DE3), purified (Ni-NTA)
T1 sequence: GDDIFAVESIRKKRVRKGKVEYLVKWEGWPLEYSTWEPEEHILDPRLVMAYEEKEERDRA

Cbx7.V1 back-mutant D8E = biological target: T2, Cbx7.V1 back-mutant D8E (human, UniProt O95931 7-66, Q9D | V10I (printed as the back-mutation I10V) | K33E | P37L (printed as the …)); experiment: as above
T2 construct: chromodomain of human Cbx7, variant V1 with residue 8 put back to the wild type; residues numbered on full-length Cbx7; Tags probably still on the protein in BLI (removal is told for FP and ITC only); source: E. coli BL21(DE3), purified (Ni-NTA)
T2 sequence: T1 sequence with D2E

Cbx7.V1 back-mutant I10V = biological target: T3, Cbx7.V1 back-mutant I10V (human, UniProt O95931 7-66, E8D (printed as the back-mutation D8E) | Q9D | K33E | P37L (printed as the …)); experiment: as above
T3 construct: chromodomain of human Cbx7, variant V1 with residue 10 put back to the wild type; residues numbered on full-length Cbx7; Tags probably still on the protein in BLI (removal is told for FP and ITC only); source: E. coli BL21(DE3), purified (Ni-NTA)
T3 sequence: T1 sequence with I4V

Cbx7.V1 back-mutant E33K = biological target: T4, Cbx7.V1 back-mutant E33K (human, UniProt O95931 7-66, E8D (printed as the back-mutation D8E) | Q9D | V10I (printed as the …)); experiment: as above
T4 construct: chromodomain of human Cbx7, variant V1 with residue 33 put back to the wild type; residues numbered on full-length Cbx7; Tags probably still on the protein in BLI (removal is told for FP and ITC only); source: E. coli BL21(DE3), purified (Ni-NTA)
T4 sequence: T1 sequence with E27K

Cbx7.V1 back-mutant L37P = biological target: T5, Cbx7.V1 back-mutant L37P (human, UniProt O95931 7-66, E8D (printed as the back-mutation D8E) | Q9D | V10I (printed as the …)); experiment: as above
T5 construct: chromodomain of human Cbx7, variant V1 with residue 37 put back to the wild type; residues numbered on full-length Cbx7; Tags probably still on the protein in BLI (removal is told for FP and ITC only); source: E. coli BL21(DE3), purified (Ni-NTA)
T5 sequence: T1 sequence with L31P

Cbx7.V1 back-mutant E38K = biological target: T6, Cbx7.V1 back-mutant E38K (human, UniProt O95931 7-66, E8D (printed as the back-mutation D8E) | Q9D | V10I (printed as the …)); experiment: as above
T6 construct: chromodomain of human Cbx7, variant V1 with residue 38 put back to the wild type; residues numbered on full-length Cbx7; Tags probably still on the protein in BLI (removal is told for FP and ITC only); source: E. coli BL21(DE3), purified (Ni-NTA)
T6 sequence: T1 sequence with E32K

Cbx7.V1 back-mutant D9Q = biological target: T7, Cbx7.V1 back-mutant D9Q (human, UniProt O95931 7-66, E8D (printed as the back-mutation D8E) | V10I (printed as the back-mutation …)); experiment: as above
T7 construct: chromodomain of human Cbx7, variant V1 with residue 9 put back to the wild type; residues numbered on full-length Cbx7; Tags probably still on the protein in BLI (removal is told for FP and ITC only); source: E. coli BL21(DE3), purified (Ni-NTA)
T7 sequence: T1 sequence with D3Q

[2] = biological target: T8, wild-type Cbx7 chromodomain (human, UniProt O95931 7-66); experiment: fluorescence polarisation; 0.5 nM FITC-labeled peptide, chromodomain serially diluted (wild types 200-0.2 µM; Cbx7.V1 and Cbx.VDs 50 µM-50 nM); 25 °C, 30 min; 25 mM HEPES pH 7.5, 150 mM NaCl, 1 mM DTT, 0.01% TritonX-100; one-site total binding model; values of single replicates
T8 construct: chromodomain of human Cbx7; also called Cbx7.wt; source: E. coli BL21(DE3), purified (Ni-NTA), tags removed with TEV protease
T8 sequence: T1 sequence with D2E, D3Q, I4V, E27K, L31P, E32K

Cbx7 chromodomain Q9D = biological target: T9, Cbx7 chromodomain Q9D (human, UniProt O95931 7-66, Q9D); experiment: as above
T9 construct: chromodomain of human Cbx7; residues numbered on full-length Cbx7; also called Cbx7 Q9D; source: E. coli BL21(DE3), purified (Ni-NTA), tags removed with TEV protease
T9 sequence: T1 sequence with D2E, I4V, E27K, L31P, E32K

Cbx7 chromodomain K33E = biological target: T10, Cbx7 chromodomain K33E (human, UniProt O95931 7-66, K33E); experiment: as above
T10 construct: chromodomain of human Cbx7; residues numbered on full-length Cbx7; also called Cbx7 K33E; source: E. coli BL21(DE3), purified (Ni-NTA), tags removed with TEV protease
T10 sequence: T1 sequence with D2E, D3Q, I4V, L31P, E32K

[3] = biological target: T11, Cbx7.V1 chromodomain variant (tags removed, used for FP) (human, UniProt O95931 7-66, E8D (printed as the back-mutation D8E) | Q9D | V10I (printed as the …)); experiment: as above
T11 construct: chromodomain of human Cbx7 with the six substitutions of the phage-selected variant V1; residues numbered on full-length Cbx7; source: E. coli BL21(DE3), purified (Ni-NTA), tags removed with TEV protease
T11 sequence: T1 sequence

[4] = biological target: T12, Cbx7 chromodomain with the double substitution Q9D/K33E (human, UniProt O95931 7-66, Q9D | K33E); experiment: as above
T12 construct: chromodomain of human Cbx7; residues numbered on full-length Cbx7; also called Cbx7.VD; source: E. coli BL21(DE3), purified (Ni-NTA), tags removed with TEV protease
T12 sequence: T1 sequence with D2E, I4V, L31P, E32K

[5] = biological target: T8, wild-type Cbx7 chromodomain; experiment: as above; remark: listed apart in the source
[6] = biological target: T12, Cbx7 chromodomain with the double …; experiment: as above; remark: listed apart in the source
[7] = biological target: T13, wild-type Cbx1 chromodomain (human, UniProt P83916 20-73); experiment: as above
T13 construct: chromodomain of human Cbx1; also called Cbx1.wt; source: E. coli BL21(DE3), purified (Ni-NTA), tags removed with TEV protease
T13 sequence (P83916 20-73, looked up): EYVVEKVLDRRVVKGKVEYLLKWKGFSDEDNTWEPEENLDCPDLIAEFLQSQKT

[8] = biological target: T14, wild-type Cbx5 chromodomain (human, UniProt P45973 18-75); experiment: as above
T14 construct: chromodomain of human Cbx5; also called Cbx5.wt; source: E. coli BL21(DE3), purified (Ni-NTA), tags removed with TEV protease
T14 sequence (P45973 18-75, looked up): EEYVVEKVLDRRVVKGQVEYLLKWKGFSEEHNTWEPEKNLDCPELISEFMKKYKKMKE

[9] = biological target: T15, wild-type Cbx2 chromodomain (human, UniProt Q14781 9-62); experiment: as above
T15 construct: chromodomain of human Cbx2; also called Cbx2.wt; source: E. coli BL21(DE3), purified (Ni-NTA), tags removed with TEV protease
T15 sequence: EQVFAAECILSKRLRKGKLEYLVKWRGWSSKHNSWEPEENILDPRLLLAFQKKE

Binder	Kd [1]	Kd (Cbx7.V1 back-mutant D8E)	Kd (Cbx7.V1 back-mutant I10V)	Kd (Cbx7.V1 back-mutant E33K)	Kd (Cbx7.V1 back-mutant L37P)	Kd (Cbx7.V1 back-mutant E38K)	Kd (Cbx7.V1 back-mutant D9Q)	Kd [2]	Kd (Cbx7 chromodomain Q9D)	Kd (Cbx7 chromodomain K33E)	Kd [3]	Kd [4]	Kd [5]	Kd [6]	Kd [7]	Kd [8]	Kd [9]
B1	4.9 µM and 4.2 µM	5.3 µM and 4.7 µM	4 µM and 3 µM	8.5 µM and 12 µM	2.7 µM and 3.3 µM	1.9 µM and 2.1 µM	–	–	–	–	–	–	–	–	–	–	–
B2	2 µM and 2.2 µM	1.9 µM and 2.2 µM	2.8 µM and 1.6 µM	–	2.8 µM and 2.2 µM	1.5 µM and 1.7 µM	1.6 µM and 2.7 µM	–	–	–	–	–	–	–	–	–	–
B3	–	–	–	–	–	–	–	41 µM and 27 µM and 23 µM	11 µM and 9.7 µM and 9.4 µM	24 µM and 18 µM and 19 µM	7.5 µM and 5.7 µM and 7.8 µM	8.4 µM and 7.4 µM and 8.2 µM	33.5 µM and 37 µM and 23 µM	8.6 µM and 7.5 µM	0.453 µM and 0.543 µM and 0.529 µM	5.6 µM and 5 µM and 4.8 µM	–
B4	–	–	–	–	–	–	–	115 µM and 79 µM and 143 µM	115 µM and 101 µM and 84 µM	17.5 µM and 21 µM and 19 µM	4.5 µM and 3.9 µM and 3.4 µM	5.1 µM and 4.7 µM and 5.2 µM	138 µM and 84 µM and 109 µM	4.8 µM and 5.2 µM	–	–	117 µM and 101 µM and 84 µM
